Experimental data taken from PMC9770967, “Native holdup (nHU) to measure binding affinities from cell extracts” (Science Advances, 2022).

Legend:
full-length SNX27 = assay: nHU-WB titration, full-length SNX27 bait, total Jurkat extracts; format: binding; settings: partial activity model (Eq. 4)
Experimental: The empty His6-AviTag-MBP-TEV vector was used to produce biotinylated MBP for control experiments. Proteins were coexpressed with BirA biotin ligase (PET21a-BirA, Addgene, no. 20857) in Escherichia coli BL21(DE3) cells. At isopropyl-β-D-thiogalactopyranoside (IPTG) induction (1 mM IPTG at 18°C overnight), 50 μM biotin was added to the media. […] Lysates were frozen at -20°C before further purification steps. Lysates were sonicated and centrifuged for clarification. Expressed proteins were captured on in-house prepacked Ni-IDA (Protino Ni-IDA Resin, Macherey-Nagel, Duren, Germany) columns and were washed with at least 10 column volumes of cold wash buffer [50 mM tris (pH 7.5), 150 mM NaCl, and 2 mM β-mercaptoethanol] before elution with 250 mM imidazole. The Ni elution was collected directly on a preequilibrated amylose column (amylose high flow resin, New England Biolabs, Ipswich, MA). […] The concentration of proteins was determined by their ultraviolet absorption at 280 nm before aliquots were snap-frozen in liquid nitrogen and stored at -80°C. […] To saturate streptavidin resin with biotinylated proteins, 50 μl of streptavidin resin (Streptavidin Sepharose High Performance, Cytiva) was mixed with biotinylated MBP or MBP-PDZ at 40 to 50 μM concentration in 20× resin volume for 60 min. […] Last, resins were washed two times (10 resin volume, holdup buffer). […]

SNX27_PDZ [1] = assay: AP-MS control pull-down on leftover resin, SNX27_PDZ bait, total SH-SY5Y extracts; format: binding, human; settings: n = 6
Experimental: Leftover beads from nHU-MS experiments were washed three times immediately after the separation of the supernatant [10 resin volume in buffer containing 50 mM tris (pH 8.5), 150 mM NaCl, 1% Triton X-100, 10× cOmplete EDTA-free protease inhibitor cocktail, 2 mM EDTA, and 1 mM TCEP]. Then, the beads were washed two times [10 resin volume buffer containing 50 mM tris (pH 8.5), 150 mM NaCl, and 1 mM TCEP]. Last, captured protein was eluted from the resin in two steps, and the eluted fractions were pooled. For each elution, the beads were incubated for 30 min with three resin volume buffer containing 20 mM tris (pH 8.5), 100 mM NaCl, 500 μM TCEP, and 8 M urea. Between each step, the beads were separated by mild centrifugation, and the supernatant was removed by gentle pipetting.
The nHU samples were precipitated with trichloroacetic acid (TCA) 20% overnight at 4°C and centrifuged at 14,000 rpm for 10 min at 4°C. The protein pellets were washed twice with 1 ml of cold acetone and air-dried. […]
Samples were analyzed using an Ultimate 3000 nano-RSLC coupled in line via a nano-electrospray ionization source, with an LTQ-Orbitrap ELITE mass spectrometer (Thermo Fisher Scientific, San Jose, CA) or with the Orbitrap Exploris 480 mass spectrometer (Thermo Fisher Scientific, Bremen, Germany) equipped with a high field asymmetric ion mobility spectrometry (FAIMS) module. […]

SNX27_PDZ [2] = assay: nHU-MS, SNX27_PDZ bait, total SH-SY5Y extracts; format: binding, human
Experimental: The empty His6-AviTag-MBP-TEV vector was used to produce biotinylated MBP for control experiments. Proteins were coexpressed with BirA biotin ligase (PET21a-BirA, Addgene, no. 20857) in Escherichia coli BL21(DE3) cells. At isopropyl-β-D-thiogalactopyranoside (IPTG) induction (1 mM IPTG at 18°C overnight), 50 μM biotin was added to the media. Harvested cells were lysed in a buffer containing 50 mM tris (pH 7.5), 150 to 300 mM NaCl, 50 μM biotin, 2 mM β-mercaptoethanol, cOmplete EDTA-free protease inhibitor cocktail (Roche, Basel, Switzerland), 1% Triton X-100, and trace amount of deoxyribonuclease, ribonuclease, and lysozyme. Lysates were frozen at −20°C before further purification steps. Lysates were sonicated and centrifuged for clarification. Expressed proteins were captured on in-house prepacked Ni-IDA (Protino Ni-IDA Resin, Macherey-Nagel, Duren, Germany) columns and were washed with at least 10 column volumes of cold wash buffer [50 mM tris (pH 7.5), 150 mM NaCl, and 2 mM β-mercaptoethanol] before elution with 250 mM imidazole. The Ni elution was collected directly on a preequilibrated amylose column (amylose high flow resin, New England Biolabs, Ipswich, MA). Amylose column was washed with 5 column volumes of cold wash buffer before fractionated elution in a buffer containing 25 mM Hepes (pH 7.5), 150 mM NaCl, 1 mM TCEP, 10% glycerol, 5 mM maltose, and cOmplete EDTA-free protease inhibitor cocktail. The concentration of proteins was determined by their ultraviolet absorption at 280 nm before aliquots were snap-frozen in liquid nitrogen and stored at −80°C.
For saturating streptavidin resin with biotinylated peptides or biotin, 50 μl of streptavidin resin was mixed with biotin or peptide at 40 to 60 μM concentration in 6 to 6.5 resin volume for 60 min. To saturate streptavidin resin with biotinylated proteins, 50 μl of streptavidin resin (Streptavidin Sepharose High Performance, Cytiva) was mixed with biotinylated MBP or MBP-PDZ at 40 to 50 μM concentration in 20× resin volume for 60 min. After saturation, resins were washed a single time [10 resin volume, holdup buffer: 50 mM tris (pH 7.5), 300 mM NaCl, and 1 mM TCEP, 0.22-μm filtered] and were depleted with biotin (10 resin volume, 10 min, holdup buffer supplemented with 100 μM biotin). Last, resins were washed two times (10 resin volume, holdup buffer).
For single-point nHU experiments carried out at ~10 μM bait concentration, 50 μl of saturated streptavidin resin was mixed with 200 μl of cell lysate (2 mg/ml). Titration experiments were carried out by mixing control and bait-saturated resin and keeping the total resin volume constant; e.g., ~5 μM bait concentration can be achieved by mixing 25 μl of bait-saturated streptavidin resin with 25 μl of control resin and 200 μl of cell lysate (2 mg/ml). Control and bait-saturated resins were prepared in larger amounts, and a serial dilution was prepared with these presaturated resins to achieve different resin ratios.
Unless specified elswhere, the nHU mixture was incubated at 4°C for 2 hours. After the incubation ended, the resin was separated from the supernatant by a brief centrifugation (15 s, 2000 g). Then, half of the supernatant was removed by pipetting without any delay to avoid any resin contamination; e.g., 100 μl of supernatant is collected if 200 μl of cell lysate was used as analyte. Alternatively, the supernatant can be centrifuged an additional time to clarify it further, removing any possible resin contamination. […]

| Molecule | f (active fraction) (full-length SNX27) | FC_AP (log2 fold change) (SNX27_PDZ [1]) | Ratio_AP (SNX27_PDZ [1]) | pKapp_HU_not_filtered (SNX27_PDZ [2]; apparent, Eq. 2, not filtered for significance) | pKapp_significant_binders_HU (SNX27_PDZ [2]; apparent, Eq. 2, significant binders (1 σ, P < 0.05)) | BI_HU (SNX27_PDZ [2]; n = 6) | FC_HU (log2 fold change) (SNX27_PDZ [2]; n = 6) | Ratio_HU (SNX27_PDZ [2]; n = 6) |
| --- | --- | --- | --- | --- | --- | --- | --- | --- |
| full-length SLC16A1: monocarboxylate transporter 1, endogenous full-length prey (protein, UniProt P53985 1-500, looked up, full-length, monocarboxylate transporter 1, endogenous full-length prey) MPPAVGGPVGYTPPDGGWGWAVVIGAFISIGFSYAFPKSITVFFKEIEGIFHATTSEVSWISSIMLAVMYGGGPISSILVNKYGSRIVMIVGGCLSGCGLIAASFCNTVQQLYVCIGVIGGLGLAFNLNPALTMIGKYFYKRRPLANGLAMAGSPVFLCTLAPLNQVFFGIFGWRGSFLILGGLLLNCCVAGALMRPIGPKPTKAGKDKSKASLEKAGKSGVKKDLHDANTDLIGRHPKQEKRSVFQTINQFLDLTLFTHRGFLLYLSGNVIMFFGLFAPLVFLSSYGKSQHYSSEKSAFLLSILAFVDMVARPSMGLVANTKPIRPRIQYFFAASVVANGVCHMLAPLSTTYVGFCVYAGFFGFAFGWLSSVLFETLMDLVGPQRFSSAVGLVTIVECCPVLLGPPLLGRLNDMYGDYKYTYWACGVVLIISGIYLFIGMGINYRLLAKEQKANEQKKESKEEETSIDVAGKPNEVTKAAESPDQKDTDGGPKEEESPV | 0.9 |  |  |  |  |  |  |  |
| CNBP: Cellular nucleic acid-binding protein (protein, UniProt P62633 2-177, looked up) CCHC-type zinc finger nucleic …: SSNECFKCGRSGHWARECPTGGGRGRGMRSRGRGGFTSDRGFQFVSSSLPDICYRCGESGHLAKDCDLQEDACYNCGRGGHIAKDCKEPKREREQCCYNCGKPGHLARDCDHADEQKCYSCGEFGHIQKDCTKVKCYRCGETGHVAINCSKTSEVNCYRCGESGHLARECTIEATA |  | -0.3792 | 0.7689 | 4.74 | 4.74 | 0.3538 | -0.63 | 0.6462 |
